Values quoted from earlier work, collected in publication PMC4699190.

Target: Carbonic anhydrase II (Homo sapiens) (UniProt P00918)
Assay: solid-phase binding assay

Kd [nM] | Substance
330 | NDCBE C-terminus (from UniProt Q2Y0W8)
597 | AE1 C-terminus (from UniProt P02730)
322 | NBCe1 C-terminus (from UniProt Q9Y6R1)
